Literature values, collected in PMC6128780.

Molecular target: Fibronectin (Homo sapiens) (UniProt P02751)
UniProt P02751, sequence (P02751 32-2477): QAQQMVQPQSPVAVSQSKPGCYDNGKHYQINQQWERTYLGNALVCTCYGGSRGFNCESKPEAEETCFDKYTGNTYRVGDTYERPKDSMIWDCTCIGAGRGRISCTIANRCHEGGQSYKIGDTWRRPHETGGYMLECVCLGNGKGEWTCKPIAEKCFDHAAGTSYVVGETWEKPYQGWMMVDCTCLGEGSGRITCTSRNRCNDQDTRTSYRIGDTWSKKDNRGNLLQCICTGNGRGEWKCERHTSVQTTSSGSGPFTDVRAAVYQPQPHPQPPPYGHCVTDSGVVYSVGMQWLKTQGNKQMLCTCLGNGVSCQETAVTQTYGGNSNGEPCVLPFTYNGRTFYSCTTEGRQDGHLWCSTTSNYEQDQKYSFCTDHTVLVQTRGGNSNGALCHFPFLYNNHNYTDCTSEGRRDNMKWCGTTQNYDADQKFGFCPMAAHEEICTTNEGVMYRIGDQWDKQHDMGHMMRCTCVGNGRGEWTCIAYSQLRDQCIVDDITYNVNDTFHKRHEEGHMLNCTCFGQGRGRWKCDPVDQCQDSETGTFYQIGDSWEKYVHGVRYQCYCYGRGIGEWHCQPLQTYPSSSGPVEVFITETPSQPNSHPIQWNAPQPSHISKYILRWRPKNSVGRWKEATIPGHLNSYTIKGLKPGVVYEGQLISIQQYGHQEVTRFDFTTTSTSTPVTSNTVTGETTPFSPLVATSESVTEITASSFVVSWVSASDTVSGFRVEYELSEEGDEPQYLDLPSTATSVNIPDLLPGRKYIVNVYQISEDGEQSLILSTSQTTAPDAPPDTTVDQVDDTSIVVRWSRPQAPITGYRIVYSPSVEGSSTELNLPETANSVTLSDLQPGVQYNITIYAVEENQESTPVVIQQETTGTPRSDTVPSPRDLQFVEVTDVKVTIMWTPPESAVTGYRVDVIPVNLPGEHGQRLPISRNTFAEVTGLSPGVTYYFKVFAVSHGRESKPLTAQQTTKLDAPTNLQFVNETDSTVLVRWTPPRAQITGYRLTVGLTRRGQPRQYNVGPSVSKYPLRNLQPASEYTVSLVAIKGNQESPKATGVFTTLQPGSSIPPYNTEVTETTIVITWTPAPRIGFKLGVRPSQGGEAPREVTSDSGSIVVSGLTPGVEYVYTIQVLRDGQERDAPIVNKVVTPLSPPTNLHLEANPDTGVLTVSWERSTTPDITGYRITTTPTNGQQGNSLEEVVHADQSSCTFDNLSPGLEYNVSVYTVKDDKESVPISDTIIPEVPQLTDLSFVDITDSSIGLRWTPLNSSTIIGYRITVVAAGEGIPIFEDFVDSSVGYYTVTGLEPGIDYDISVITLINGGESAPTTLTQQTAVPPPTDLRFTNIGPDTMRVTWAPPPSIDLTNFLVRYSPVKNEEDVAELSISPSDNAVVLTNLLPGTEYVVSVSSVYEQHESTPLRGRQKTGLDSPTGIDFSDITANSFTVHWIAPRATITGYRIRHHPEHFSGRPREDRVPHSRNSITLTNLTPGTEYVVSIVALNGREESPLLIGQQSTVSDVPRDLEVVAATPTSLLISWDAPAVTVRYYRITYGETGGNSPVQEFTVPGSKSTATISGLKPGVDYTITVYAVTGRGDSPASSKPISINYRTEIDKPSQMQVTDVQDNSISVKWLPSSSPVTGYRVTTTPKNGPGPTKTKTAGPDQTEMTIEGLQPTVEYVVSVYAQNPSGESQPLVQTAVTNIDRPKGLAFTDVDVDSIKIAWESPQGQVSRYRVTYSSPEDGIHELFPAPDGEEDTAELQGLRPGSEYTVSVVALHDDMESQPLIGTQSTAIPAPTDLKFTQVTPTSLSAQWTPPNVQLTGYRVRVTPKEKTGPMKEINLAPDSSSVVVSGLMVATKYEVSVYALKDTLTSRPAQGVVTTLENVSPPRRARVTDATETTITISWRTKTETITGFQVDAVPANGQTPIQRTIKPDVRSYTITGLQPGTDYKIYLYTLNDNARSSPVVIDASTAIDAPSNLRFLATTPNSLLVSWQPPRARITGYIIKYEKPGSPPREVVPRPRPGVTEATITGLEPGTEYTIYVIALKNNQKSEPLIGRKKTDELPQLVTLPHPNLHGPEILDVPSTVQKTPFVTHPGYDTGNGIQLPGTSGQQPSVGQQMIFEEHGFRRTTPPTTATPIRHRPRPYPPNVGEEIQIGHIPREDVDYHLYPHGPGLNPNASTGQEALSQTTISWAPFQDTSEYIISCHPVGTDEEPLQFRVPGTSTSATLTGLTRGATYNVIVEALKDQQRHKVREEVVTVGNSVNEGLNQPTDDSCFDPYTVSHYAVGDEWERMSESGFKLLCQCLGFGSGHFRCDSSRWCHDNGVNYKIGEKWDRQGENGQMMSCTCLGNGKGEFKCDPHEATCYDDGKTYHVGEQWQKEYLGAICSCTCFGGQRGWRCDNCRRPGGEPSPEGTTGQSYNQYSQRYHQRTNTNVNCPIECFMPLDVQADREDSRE

Carcinoembryonic antigen (CEA) IgV-like N domain (from UniProt P06731)
Kd: 16 nM
